{"source": "patent US20230346885A1", "about": "(published 2023)", "binders": {"B1": {"name": "TCR of SEQ ID NOs 519 and 520 (TCR, V domains shown)", "Valpha": "KQEVTQIPAALSVPEGENLALNCSFTDSAIYNLQWFRQDPGKGLTSLLLIQSSQREQTSGRLNASLDKSSGRSTLYIAASQPGDSATYLCAVNAGGTSYGKLTFGQGTILTVHP", "Vbeta": "NAGVTQTPKFQVLKTGQSMTLQCAQDMNHNSMYWYRQDPGMGLRLIYYSASEGTTDKGEVPNGYNVSRLNKREFSLRLESAAPSQTSVYFCASSYWREYYEQYFGPGTRLTVT"}, "B2": {"name": "TCR of SEQ ID NOs 491 and 492 (TCR, V domains shown)", "Valpha": "KQEVTQIPAALSVPEGENLVLNCSFTDSAIYNLQWFRQDPGKGLTSLLLIQSSQREQTSGRLNASLDKSSGRSTLYIAASQPGDSATYLCAVSNSGGYQKVTFGTGTKLQVIP", "Vbeta": "NAGVTQTPKFQVLKTGQSMTLQCAQDMNHEYMSWYRQDPGMGLRLIHYSVGAGITDQGEVPDGYNVSRSTTEDFPLRLLSAAPSQTSVYFCASSYSTGSYEQYFGPGTRLTVT"}, "B3": {"name": "TCR of SEQ ID NOs 493 and 494 (TCR, V domains shown)", "Valpha": "B2 Valpha with S93G", "Vbeta": "B2 Vbeta with D62N"}, "B4": {"name": "TCR of SEQ ID NOs 495 and 496 (TCR, V domains shown)", "Valpha": "B2 Valpha with S93G", "Vbeta": "B2 Vbeta with D62N, E101G, Q102Y, Y103T, P106S, T113V"}, "B5": {"name": "TCR of SEQ ID NOs 531 and 532 (TCR, V domains shown)", "Valpha": "B2 Valpha with S93L, N94S, S95N, G96F, Y98N, Q99E, V101L, K108R, Q110T, V111I", "Vbeta": "NAGVTQTPKFRILKIGQSMTLQCTQDMNHNYMYWYRQDPGMGLKLIYYSVGAGITDKGEVPNGYNVSRSTTEDFPLRLLSAAPSQTSVYFCASTREAGLDYGYTFGSGTRLTVV"}, "B6": {"name": "TCR of SEQ ID NOs 551 and 552 (TCR, V domains shown)", "Valpha": "KQEVTQIPAALSVPEGENLVLNCSFTDSAIYNLQWFRQDPGKGLTSLLLIQSSQREQTSGRLNASLDKSSGRSTLYIAASQPGDSATYLCAVTGNQFYFGTGTSLTVIP", "Vbeta": "NAGVTQTPKFRVLKTGQSMTLQCAQDMNHEYMYWYRQDPGMGLRLIHYSVGAGITDQGEVPNGYNVSRSTTEDFPLRLLSAAPSQTSVYFCASSTYPVWGGEKMFFGSGTQLSVL"}, "B7": {"name": "TCR of SEQ ID NOs 515 and 516 (TCR, V domains shown)", "Valpha": "KQEVTQIPAALSVPEGENLVLNCSFTDSAIYNLQWFRQDPGKGLTSLLLIQSSQREQTSGRLNASLDKSSGRSTLYIAASQPGDSATYLCAVVSNNDMRFGAGTRLTVKP", "Vbeta": "NAGVTQTPKFQVLKTGQSMTLQCAQDMNHEYMSWYRQDPGMGLRLIHYSVGAGITDQGEVPNGYNVSRSTTEDFPLRLLSAAPSQTSVYFCASSLHSPVQGDYGYTFGSGTRLTVV"}, "B8": {"name": "TCR of SEQ ID NOs 547 and 548 (TCR, V domains shown)", "Valpha": "KQEVTQIPAALSVPEGENLVLNCSFTDSAIYNLQWFRQDPGKGLTSLLLIQSSQREQTSGRLNASLDKSSGRSTLYIAASQPGDSATYLCAVRQGYSTLTFGKGTMLLVSP", "Vbeta": "NAGVTQTPKFQVLKTGQSMTLQCAQDMNHNSMYWYRQDPGMGLRLIYYSASEGTTDKGEVPNGYNVSRLNKREFSLRLESAAPSQTSVYFCASSYSYPLAVGELFFGEGSRLTVL"}, "B9": {"name": "TCR of SEQ ID NOs 555 and 556 (TCR, V domains shown)", "Valpha": "B8 Valpha with R93Q, Q94T, Y96A, S97N, T98N, T100F, K103T, M106R, L108T, S110I", "Vbeta": "B6 Vbeta with V12I, T15I, A24T, E30N, M104L"}, "B10": {"name": "TCR of SEQ ID NOs 539 and 540 (TCR, V domains shown)", "Valpha": "KQEVTQIPAALSVPEGENLVLNCSFTDSAIYNLQWFRQDPGKGLTSLLLIQSSQREQTSGRLNASLDKSSGRSTLYIAASQPGDSATYLCAVRVTGANNLFFGTGTRLTVIP", "Vbeta": "NAGVTQTPKFQVLKTGQSMTLQCAQDMNHEYMSWYRQDPGMGLRLIHYSVGAGITDQGEVPNGYNVSRLNKREFSLRLESAAPSQTSVYFCASRPVGGDYTGELFFGEGSRLTVL"}, "B11": {"name": "TCR of SEQ ID NOs 553 and 554 (TCR, V domains shown)", "Valpha": "QKEVEQNSEPLSVPEGAIASLNCTYSDRGSQSFFWYRQYSGKSPELIMSIYSNGDKEDGRFTAQLNKASQYVSLLIRDSQPSDSATYLCAVNSQGGKLMFGQGTELSVKP", "Vbeta": "NAGVTQTPKFRVLKTGQSMTLQCAQDMNHNYMYWYRQDPGMGLRLIHYSVGEGTTAKGEVPDGYNVSRLKKQNFLLGLESAAPSQTSVYFCASSYAPWPGPYEQYVGPGTRLTVT"}, "B12": {"name": "TCR of SEQ ID NOs 489 and 490 (TCR, V domains shown)", "Valpha": "KQEVTQIPAALSVPEGENLVLNCSFTDSAIYNLQWFRQDPGKGLTSLLLIQSSQREQTSGRLNASLDKSSGRSTLYIAASQPGDSATYLCAVRGDYKLSFGAGTTVTVRA", "Vbeta": "NAGVTQTPKFQVLKTGQSMTLQCAQDMNHNSMYWYRQDPGMGLRLIYYSASEGTTDKGEVPNGYNVSRLNKREFSLRLESAAPSQTSVYFCASSDPLGGLYGYTFGSGTRLTVV"}, "B13": {"name": "TCR of SEQ ID NOs 543 and 544 (TCR, V domains shown)", "Valpha": "B12 Valpha with R93G, G94D", "Vbeta": "B12 Vbeta with D95E, P96G, L97W, L100R, Y101T, G102E, Y103A, T104F, S107Q"}, "B14": {"name": "TCR of SEQ ID NOs 549 and 550 (TCR, V domains shown)", "Valpha": "B12 Valpha with R93S, G94N", "Vbeta": "NAGVTQTPKFRVLKTGQSMTLLCAQDMNHEYMYWYRQDPGMGLRLIHYSVGEGTTAKGEVPDGYNVSRLKKQNFLLGLESAAPSQTSVYFCASSYSSRIYNEQFFGPGTRLTVL"}, "B15": {"name": "TCR of SEQ ID NOs 545 and 546 (TCR, V domains shown)", "Valpha": "B12 Valpha with G94D", "Vbeta": "NAGVTQTPKFRVLKTGQSMTLLCAQDMNHEYMYWYRQDPGMGLRLIHYSVGEGTTAKGEVPDGYNVSRLKKQNFLLGLESAAPSQTSVYFCASSYGPGQIYGYTFGSGTRLTVV"}, "B16": {"name": "TCR of SEQ ID NOs 541 and 542 (TCR, V domains shown)", "Valpha": "B12 Valpha with R93D, G94S, D95W, Y96G, S99Q, T105Q, T107V, R109T, A110P", "Vbeta": "NAGVTQTPKFQVLKTGQSMTLQCAQDMNHEYMSWYRQDPGMGLRLIHYSVGAGITDQGEVPNGYNVSRSTTEDFPLRLLSAAPSQTSVYFCASSSLGLGDYGYTFGSGTRLTVV"}, "B17": {"name": "TCR of SEQ ID NOs 517 and 518 (TCR, V domains shown)", "Valpha": "KQEVTQIPAALSVPEGENLVLNCSFTDSAIYNLQWFRQDPGKGLTSLLLIQSSQREQTSGRLNASLDKSSGRSTLYIAASQPGDSATYLCAPGGYQKVTFGTGTKLQVIP", "Vbeta": "NAGVTQTPKFQVLKTGQSMTLQCAQDMNHEYMSWYRQDPGMGLRLIHYSVGAGITDQGEVPNGYNVSRSTTEDFPLRLLSAAPSQTSVYFCASRRDPLGGYTFGSGTRLTVV"}, "B18": {"name": "TCR of SEQ ID NOs 535 and 536 (TCR, V domains shown)", "Valpha": "B17 Valpha with P92V", "Vbeta": "NAGVTQTPKFRVLKTGQSMTLLCAQDMNHNYMYWYRQDPGMGLKLIYYSVGAGITDKGEVPNGYNVSRSTTEDFPLRLELAAPSQTSVYFCASRVDTLGEAFFGQGTRLTVV"}, "B19": {"name": "TCR of SEQ ID NOs 529 and 530 (TCR, V domains shown)", "Valpha": "KQEVTQIPAALSVPEGENLVLNCSFTDSAIYNLQWFRQDPGKGLTSLLLIQSSQREQTSGRLNASLDKSSGRSTLYIAASQPGDSATYLCAVRPSTDSWGKLQFGAGTQVVVTP", "Vbeta": "B17 Vbeta with R94S, R95P, D96T, P97G, L98Y, G99Y"}, "B20": {"name": "TCR of SEQ ID NOs 533 and 534 (TCR, V domains shown)", "Valpha": "B17 Valpha with P92V, G93S, Q96S, K97T, V98L, T102K, K105M, Q107L, I109S", "Vbeta": "B17 Vbeta with R94S, R95E, D96G, L98F, G99S, G100E, Y101A, T102F, S105Q"}, "B21": {"name": "TCR of SEQ ID NOs 537 and 538 (TCR, V domains shown)", "Valpha": "B17 Valpha with P92V, Q96D, T99I, T102P, K105S, Q107S", "Vbeta": "B17 Vbeta with R95L, D96G, P97Q, L98F, G100Q, Y101A, T102F, S105Q"}, "B22": {"name": "TCR of SEQ ID NOs 487 and 488 (TCR, V domains shown)", "Valpha": "KQEVTQIPAALSVPEGENLVLNCSFTDSAIYNLQWFRQDPGKGLTSLLLIQSSQREQTSGRLNASLDKSSGRSTLYIAASQPGDSATYLCALGYRGSARQLTFGSGTQLTVLP", "Vbeta": "NAGVTQTPKFRVLKTGQSMTLLCAQDMNHEYMYWYRQDPGMGLRLIHYSVGEGTTAKGEVPDGYNVSRLNKREFSLRLESAAPSQTSVYFCASSVGYPGELFFGEGSRLTVL"}, "B23": {"name": "TCR of SEQ ID NOs 527 and 528 (TCR, V domains shown)", "Valpha": "B22 Valpha with L92V, G93R, Y94P, R95S", "Vbeta": "B17 Vbeta with R94S, R95Y, D96G, P97V, L98Y, G99T, G100E, Y101A, T102F, S105Q"}}, "experiment_in_all_cases": "binding, other", "key": {"[1]": {"biological_target": "T1, RLN1 peptide on HLA (human)", "T1 peptide": "FIANLPPELKA"}, "[2]": {"biological_target": "T2, PAGE5 peptide on HLA (human)", "T2 peptide": "TLPTFDPTKV"}, "[3]": {"biological_target": "T3, RLN1 peptide on HLA (human)", "T3 peptide": "LLLNQFSRA"}, "[4]": {"biological_target": "T4, SLC30A8 peptide on HLA (human)", "T4 peptide": "ILAVDGVLSV"}, "[5]": {"biological_target": "T5, SAGE1 peptide on HLA (human)", "T5 peptide": "VLIQQLEKA"}, "[6]": {"biological_target": "T6, SAGE1 peptide on HLA (human)", "T6 peptide": "TVLPGLTYL"}, "[7]": {"biological_target": "T7, PAGE2 peptide on HLA (human)", "T7 peptide": "IMPTFDLTKV"}, "[8]": {"biological_target": "T8, SAGE1 peptide on HLA (human)", "T8 peptide": "GLYSTVPHNV"}}, "note": "Where a chain is given by its changes, count along the chain named.", "data": [{"binder": "B1", "values": [{"measurement": "binding result", "setting": "[1]", "result": "recognises"}]}, {"binder": "B2", "values": [{"measurement": "binding result", "setting": "[2]", "result": "recognises"}]}, {"binder": "B3", "values": [{"measurement": "binding result", "setting": "[2]", "result": "recognises"}]}, {"binder": "B4", "values": [{"measurement": "binding result", "setting": "[2]", "result": "recognises"}]}, {"binder": "B5", "values": [{"measurement": "binding result", "setting": "[3]", "result": "recognises"}]}, {"binder": "B6", "values": [{"measurement": "binding result", "setting": "[4]", "result": "recognises"}]}, {"binder": "B7", "values": [{"measurement": "binding result", "setting": "[1]", "result": "recognises"}]}, {"binder": "B8", "values": [{"measurement": "binding result", "setting": "[5]", "result": "recognises"}]}, {"binder": "B9", "values": [{"measurement": "binding result", "setting": "[4]", "result": "recognises"}]}, {"binder": "B10", "values": [{"measurement": "binding result", "setting": "[6]", "result": "recognises"}]}, {"binder": "B11", "values": [{"measurement": "binding result", "setting": "[4]", "result": "recognises"}]}, {"binder": "B12", "values": [{"measurement": "binding result", "setting": "[7]", "result": "recognises"}]}, {"binder": "B13", "values": [{"measurement": "binding result", "setting": "[6]", "result": "recognises"}]}, {"binder": "B14", "values": [{"measurement": "binding result", "setting": "[5]", "result": "recognises"}]}, {"binder": "B15", "values": [{"measurement": "binding result", "setting": "[5]", "result": "recognises"}]}, {"binder": "B16", "values": [{"measurement": "binding result", "setting": "[6]", "result": "recognises"}]}, {"binder": "B17", "values": [{"measurement": "binding result", "setting": "[1]", "result": "recognises"}]}, {"binder": "B18", "values": [{"measurement": "binding result", "setting": "[8]", "result": "recognises"}]}, {"binder": "B19", "values": [{"measurement": "binding result", "setting": "[3]", "result": "recognises"}]}, {"binder": "B20", "values": [{"measurement": "binding result", "setting": "[8]", "result": "recognises"}]}, {"binder": "B21", "values": [{"measurement": "binding result", "setting": "[8]", "result": "recognises"}]}, {"binder": "B22", "values": [{"measurement": "binding result", "setting": "[7]", "result": "recognises"}]}, {"binder": "B23", "values": [{"measurement": "binding result", "setting": "[3]", "result": "recognises"}]}]}
